Patent publication US20120141480A1

How the values were obtained:
[1] = molecular target: dog factor D (in dog serum) (dog); experiment: cell-based or functional assay; conditions: scale: times less effective than on human factor D
[2] = molecular target: human factor D (purified from human serum) (human) (UniProt P00746); experiment: cell-based or functional assay
Sequence of UniProt P00746 (P00746 26-253 N180D): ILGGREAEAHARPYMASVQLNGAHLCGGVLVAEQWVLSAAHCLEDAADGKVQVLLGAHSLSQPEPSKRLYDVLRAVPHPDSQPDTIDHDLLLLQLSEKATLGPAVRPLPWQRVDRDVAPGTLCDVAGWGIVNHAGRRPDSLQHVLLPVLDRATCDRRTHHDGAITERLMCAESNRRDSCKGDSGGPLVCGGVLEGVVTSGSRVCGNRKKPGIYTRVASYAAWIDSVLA

## MAb 166-32 (antibody)
[1]
  neutralization of dog factor D in hemolytic assays, against human factor D: > 10
[2]
  alternative pathway hemolytic activity of plasma from an extracorporeal circuit with human whole blood (molar ratio (MAb:factor D)): 1.5
  inhibition of factor D dependent hemolysis of unsensitized rabbit RBCs (factor D depleted human serum reconstituted with purified factor D): 0.3 µg/mL
  molar ratio for inhibition of factor D dependent hemolysis (molar ratio (MAb 166-32 to factor D)): 0.5
